This assay addresses LSD1 (lysine specific demethylase 1), full length (UniProt O60341).

For one substance, K (M,post) (post-equilibrium apparent Michaelis-Menten constant) of the demethylation of K4meK9 by 200 nM CoREST ternary complex, APO, real-time 1H NMR assay and K (M,post) (post-equilibrium apparent Michaelis-Menten constant) of the demethylation of K4meK9 by the CoREST ternary complex pre-equilibrated with 5 μM MS275 HDAC inhibitor, real-time 1H NMR assay results are on record in PMC7043024.

Regarding H3K4me 1-21 peptide, the K (M,post) (post-equilibrium apparent Michaelis-Menten constant) of the demethylation of K4meK9 by 200 nM CoREST ternary complex, APO, real-time 1H NMR assay came out at 2.3 µM and the K (M,post) (post-equilibrium apparent Michaelis-Menten constant) of the demethylation of K4meK9 by the CoREST ternary complex pre-equilibrated with 5 μM MS275 HDAC inhibitor, real-time 1H NMR assay came to 9.2 µM.
